# Results: article PMC12598741 (Antibody Therapeutics, 2025)
# Experiments:
# [1] = biological target: light-chain single-domain antibody L6 (mCD16-specific VHHL); assay: BLI; conditions: both partners purified
# [2] = biological target: T1, human tumor necrosis factor alpha (hTNF-α)-His (human, UniProt P01375); assay: BLI; conditions: both partners purified
# T1 construct: also called hTNF-a
# T1 sequence (P01375 whole entry): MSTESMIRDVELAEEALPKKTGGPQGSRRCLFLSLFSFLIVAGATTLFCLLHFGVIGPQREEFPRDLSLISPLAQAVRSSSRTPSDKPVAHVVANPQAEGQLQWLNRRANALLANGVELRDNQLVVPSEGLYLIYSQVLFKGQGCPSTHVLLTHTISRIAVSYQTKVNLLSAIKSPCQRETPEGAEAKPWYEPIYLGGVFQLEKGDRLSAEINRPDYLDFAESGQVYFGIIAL
Binder,Kd [1],binding result [2]
"mouse CD16 (mCD16), his-tagged (receptor, UniProt P08508 31-215, looked up) ALPKAVVKLDPPWIQVLKEDMVTLMCEGTHNPGNSSTQWFHNGRSIRSQVQASYTFKATVNDSGEYRCQMEQTRLSDPVDLGVISDWLLLQTPQRVFLEGETITLRCHSWRNKLLNRISFFHNEKSVRYHHYKSNFSIPKANHSHSGDYYCKGSLGSTQHQSKPVTITVQDPATTSSISLVWYHT",54.3 ± 1.41 nM,–
"hIgG4 bsAb by modular replacement: golimumab (Gmab) heavy chain with L6 light chain (bispecific antibody, V domains shown) VH: QVQLVESGGGVVQPGRSLRLSCAASGFIFSSYAMHWVRQAPGNGLEWVAFMSYDGSNKKYADSVKGRFTISRDNSKNTLYLQMNSLRAEDTAVYYCARDRGIAAGGNYYYYGMDVWGQGTTVTVSS VL: EIVLTQSPGTLSLSPGERATLSCRASGSTFSSYTLAWYQQKPGQAPRLLIYIYSDGGRTSRATGIPDRFSGSGSGTDLTLTISRLEPEDFAVYYCNAESPFYDYDYWGKGTKVEIK",–,binds
